From patent US20160303183A1 (WUHAN YICHENG BIOTECH, published 2016)

Molecular target: T1, proliferating cell nuclear antigen (PCNA) (human, UniProt P12004 1-261)
T1 construct: Endogenous intracellular protein, immunoprecipitated from HT29 cell lysate
Test: not described

T1 sequence (P12004 whole entry): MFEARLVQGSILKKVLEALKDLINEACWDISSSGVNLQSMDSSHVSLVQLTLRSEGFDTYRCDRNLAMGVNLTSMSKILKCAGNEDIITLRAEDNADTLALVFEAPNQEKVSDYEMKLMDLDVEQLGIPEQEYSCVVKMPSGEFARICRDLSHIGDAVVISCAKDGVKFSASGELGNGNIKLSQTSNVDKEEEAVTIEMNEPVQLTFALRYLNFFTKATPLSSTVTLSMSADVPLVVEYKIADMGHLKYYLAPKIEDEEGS

binding result: binds
Binder: MPYSTELIFYIEMDP (15-residue polypeptide fragment) [polypeptide P15]
